Experimental data reported in paper PMC10973816.

Assays:
[1] = Non-permeabilised mAb-1438 immunolabelling, HEK, mGluR6-EGFP; settings: glycan lost; control: wild type mGluR6-EGFP
[2] = EGFP in TRPM1-positive OPL puncta, electroporated mouse retina; settings: glycan lost; control: wild type mGluR6-EGFP
[3] = Non-permeabilised mAb-1438 immunolabelling, HEK, untagged; settings: glycan lost; control: wild type
[4] = Total EGFP fluorescence, HEK; settings: glycan lost; control: wild type mGluR6-EGFP
[5] = Permeabilised mAb-1438 immunolabelling, HEK, untagged; settings: glycan lost; control: wild type

B1: mGluR6 (metabotropic glutamate receptor 6): N445Q (protein)
parent chain: MGRLRVLLLWLAWWLSQAGIAHGAGSVRLAGGLTLGGLFPVHARGAAGRACGTLKKEQGVHRLEAMLYALDRINADPELLPGVRLGARLLDTCSRDTYALEQALSFVQALIRGRGDGEEASVRCPGGVPPLRAAPPERVVAVVGASASSVSIMVANVLRLFAIPQISYASTAPELSDSTRYDFFSRVVPPDSYQAQAMVDIVRALGWNYVSTLASEGNYGESGVEAFVQISREAGGVCIAQSIKIPREPKPGEFHKVIRRLMETPNARGIIIFANEDDIRRVLEATRQANLTGHFLWVGSDSWGSKISPILNLEEEAVGAITILPKRASIDGFDQYFMTRSLENNRRNIWFAEFWEENFNCKLTSSGGQSDDSTRKCTGEERIGQDSTYEQEGKVQFVIDAVYAIAHALHSMHQALCPGHTGLCPAMEPTDGRTLLHYIRAVRFNGSAGTPVMFNENGDAPGRYDIFQYQATNGSASSGGYQAVGQWAEALRLDMEALQWSGDPHEVPPSQCSLPCGPGERKKMVKGVPCCWHCEACDGYRFQVDEFTCEACPGHMRPTPNHTGCRPTPVVRLTWSSPWAALPLLLAVLGIMATTTIIATFMRHNDTPIVRASGRELSYVLLTGIFLIYAITFLMVAEPCAAVCASRRLLLGLGTTLSYSALLTKTNRIYRIFEQGKRSVTPPPFISPTSQLVITFGLTSLQVVGVIAWLGAQPPHSVIDYEEQRTVDPEQARGVLKCDMSDLSLIGCLGYSLLLMVTCTVYAIKARGVPETFNEAKPIGFTMYTTCIIWLAFVPIFFGTAQSAEKIYIQTTTLTVSLSLSASVSLGMLYVPKTYVILFHPEQNVQKRKRSLKKTSTMAAPPKSENSEDAK
In the case of B1, the localisation_or_trafficking [1] is reported as “decreases”, the localisation_or_trafficking [2] is reported as “no change” and the localisation_or_trafficking [3] is reported as “decreases”.

B2: mGluR6 (metabotropic glutamate receptor 6): N561Q (protein)
parent chain: MGRLRVLLLWLAWWLSQAGIAHGAGSVRLAGGLTLGGLFPVHARGAAGRACGTLKKEQGVHRLEAMLYALDRINADPELLPGVRLGARLLDTCSRDTYALEQALSFVQALIRGRGDGEEASVRCPGGVPPLRAAPPERVVAVVGASASSVSIMVANVLRLFAIPQISYASTAPELSDSTRYDFFSRVVPPDSYQAQAMVDIVRALGWNYVSTLASEGNYGESGVEAFVQISREAGGVCIAQSIKIPREPKPGEFHKVIRRLMETPNARGIIIFANEDDIRRVLEATRQANLTGHFLWVGSDSWGSKISPILNLEEEAVGAITILPKRASIDGFDQYFMTRSLENNRRNIWFAEFWEENFNCKLTSSGGQSDDSTRKCTGEERIGQDSTYEQEGKVQFVIDAVYAIAHALHSMHQALCPGHTGLCPAMEPTDGRTLLHYIRAVRFNGSAGTPVMFNENGDAPGRYDIFQYQATNGSASSGGYQAVGQWAEALRLDMEALQWSGDPHEVPPSQCSLPCGPGERKKMVKGVPCCWHCEACDGYRFQVDEFTCEACPGHMRPTPNHTGCRPTPVVRLTWSSPWAALPLLLAVLGIMATTTIIATFMRHNDTPIVRASGRELSYVLLTGIFLIYAITFLMVAEPCAAVCASRRLLLGLGTTLSYSALLTKTNRIYRIFEQGKRSVTPPPFISPTSQLVITFGLTSLQVVGVIAWLGAQPPHSVIDYEEQRTVDPEQARGVLKCDMSDLSLIGCLGYSLLLMVTCTVYAIKARGVPETFNEAKPIGFTMYTTCIIWLAFVPIFFGTAQSAEKIYIQTTTLTVSLSLSASVSLGMLYVPKTYVILFHPEQNVQKRKRSLKKTSTMAAPPKSENSEDAK
In the case of B2, the localisation_or_trafficking [1] is reported as “decreases”, the expression_or_secretion [4] is reported as “decreases” and the localisation_or_trafficking [2] is reported as “no change”. For the same protein, the localisation_or_trafficking [3] was “decreases”.

B3: mGluR6 (metabotropic glutamate receptor 6): 4Q (protein)
parent chain: MGRLRVLLLWLAWWLSQAGIAHGAGSVRLAGGLTLGGLFPVHARGAAGRACGTLKKEQGVHRLEAMLYALDRINADPELLPGVRLGARLLDTCSRDTYALEQALSFVQALIRGRGDGEEASVRCPGGVPPLRAAPPERVVAVVGASASSVSIMVANVLRLFAIPQISYASTAPELSDSTRYDFFSRVVPPDSYQAQAMVDIVRALGWNYVSTLASEGNYGESGVEAFVQISREAGGVCIAQSIKIPREPKPGEFHKVIRRLMETPNARGIIIFANEDDIRRVLEATRQANLTGHFLWVGSDSWGSKISPILNLEEEAVGAITILPKRASIDGFDQYFMTRSLENNRRNIWFAEFWEENFNCKLTSSGGQSDDSTRKCTGEERIGQDSTYEQEGKVQFVIDAVYAIAHALHSMHQALCPGHTGLCPAMEPTDGRTLLHYIRAVRFNGSAGTPVMFNENGDAPGRYDIFQYQATNGSASSGGYQAVGQWAEALRLDMEALQWSGDPHEVPPSQCSLPCGPGERKKMVKGVPCCWHCEACDGYRFQVDEFTCEACPGHMRPTPNHTGCRPTPVVRLTWSSPWAALPLLLAVLGIMATTTIIATFMRHNDTPIVRASGRELSYVLLTGIFLIYAITFLMVAEPCAAVCASRRLLLGLGTTLSYSALLTKTNRIYRIFEQGKRSVTPPPFISPTSQLVITFGLTSLQVVGVIAWLGAQPPHSVIDYEEQRTVDPEQARGVLKCDMSDLSLIGCLGYSLLLMVTCTVYAIKARGVPETFNEAKPIGFTMYTTCIIWLAFVPIFFGTAQSAEKIYIQTTTLTVSLSLSASVSLGMLYVPKTYVILFHPEQNVQKRKRSLKKTSTMAAPPKSENSEDAK
In the case of B3, the expression_or_secretion [4] is reported as “decreases”, the localisation_or_trafficking [2] is reported as “abolishes” and the localisation_or_trafficking [3] is reported as “abolishes”. The expression_or_secretion [5] was “decreases”.
